Measured values reported in article PMC5563082 (2017).
Like-named read-outs stand apart in the source and are kept apart here.

Tests used:
Assay in all cases: SPR
[1] = target: T1, human NL3(–A)_(ECTO) (Gln38-Asp636), immobilised for SPR (human, UniProt Q9NZ94-1 38-636, –A: nothing between Asp152 and Asp193, biotin on the Avitag (in vivo biotinylation by BirA))
[2] = target: T2, human NL4_(ECTO) (NL4(X); Gln42-Glu602), immobilised for SPR (human, UniProt Q8N0W4-1 42-602, biotin on the Avitag (in vivo biotinylation by BirA))
T2 chain: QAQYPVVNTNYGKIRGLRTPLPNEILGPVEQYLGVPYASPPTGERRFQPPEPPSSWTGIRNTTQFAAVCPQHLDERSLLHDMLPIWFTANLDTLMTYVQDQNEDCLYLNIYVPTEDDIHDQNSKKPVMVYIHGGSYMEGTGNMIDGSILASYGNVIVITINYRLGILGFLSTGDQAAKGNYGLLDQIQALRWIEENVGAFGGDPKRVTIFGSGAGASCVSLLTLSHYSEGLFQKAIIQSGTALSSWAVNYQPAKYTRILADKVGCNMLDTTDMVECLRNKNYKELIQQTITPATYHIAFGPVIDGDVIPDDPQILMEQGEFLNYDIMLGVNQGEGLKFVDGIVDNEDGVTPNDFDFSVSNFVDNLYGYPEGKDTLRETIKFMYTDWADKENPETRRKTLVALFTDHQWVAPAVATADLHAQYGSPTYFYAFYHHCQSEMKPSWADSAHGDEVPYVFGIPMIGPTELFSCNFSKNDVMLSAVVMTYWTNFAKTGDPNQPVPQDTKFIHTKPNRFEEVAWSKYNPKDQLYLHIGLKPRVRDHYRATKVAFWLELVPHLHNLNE

[3] = target: T3, human NL5_(ECTO) (NL4(Y); Gln42-Glu602), immobilised for SPR (human, UniProt Q8NFZ3-1 42-602, biotin on the Avitag (in vivo biotinylation by BirA))
T3 chain: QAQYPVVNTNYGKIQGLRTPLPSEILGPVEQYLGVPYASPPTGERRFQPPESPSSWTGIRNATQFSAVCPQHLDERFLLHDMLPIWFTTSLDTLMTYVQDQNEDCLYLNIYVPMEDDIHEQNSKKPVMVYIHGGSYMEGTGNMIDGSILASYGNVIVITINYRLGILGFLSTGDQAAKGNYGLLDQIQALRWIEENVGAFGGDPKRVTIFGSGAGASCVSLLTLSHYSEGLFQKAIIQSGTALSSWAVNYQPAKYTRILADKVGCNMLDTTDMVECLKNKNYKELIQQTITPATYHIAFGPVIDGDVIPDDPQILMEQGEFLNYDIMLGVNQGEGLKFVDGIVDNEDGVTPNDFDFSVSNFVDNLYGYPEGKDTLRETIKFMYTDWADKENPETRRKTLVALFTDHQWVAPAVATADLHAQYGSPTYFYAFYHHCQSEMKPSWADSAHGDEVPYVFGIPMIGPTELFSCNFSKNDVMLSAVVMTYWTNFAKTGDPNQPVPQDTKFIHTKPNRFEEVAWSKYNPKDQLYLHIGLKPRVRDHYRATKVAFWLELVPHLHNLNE

[4] = target: T1, human NL3(–A)_(ECTO) (Gln38-Asp636), …; remark: listed apart in the source
[5] = target: T4, human NL1(–A–B)_(ECTO), biotinylated and immobilised for SPR (human, biotin on the Avitag (in vivo biotinylation by BirA))
T4 chain: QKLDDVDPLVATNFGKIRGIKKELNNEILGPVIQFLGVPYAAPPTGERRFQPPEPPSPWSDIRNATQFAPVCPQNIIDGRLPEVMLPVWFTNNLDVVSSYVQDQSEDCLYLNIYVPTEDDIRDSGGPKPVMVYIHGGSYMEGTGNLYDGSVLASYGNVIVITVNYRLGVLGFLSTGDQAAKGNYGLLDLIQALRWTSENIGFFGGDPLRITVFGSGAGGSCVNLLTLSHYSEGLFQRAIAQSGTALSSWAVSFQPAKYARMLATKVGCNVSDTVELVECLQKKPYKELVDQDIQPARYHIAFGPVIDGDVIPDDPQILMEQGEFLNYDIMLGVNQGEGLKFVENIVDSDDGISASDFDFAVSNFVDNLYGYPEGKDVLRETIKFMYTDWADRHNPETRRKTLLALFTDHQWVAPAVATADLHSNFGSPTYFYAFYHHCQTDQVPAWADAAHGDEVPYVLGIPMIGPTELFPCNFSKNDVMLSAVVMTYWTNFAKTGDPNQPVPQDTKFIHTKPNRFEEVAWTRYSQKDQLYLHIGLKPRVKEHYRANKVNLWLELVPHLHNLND

[6] = target: human NL2(–A)_(ECTO) (Glu38-His612), immobilised for SPR (human, UniProt Q8NFZ4 38-612, –A: GPLTKKRDEATLNPPDT between Asp152 and Asp170 absent, biotin on the Avitag (in vivo biotinylation by BirA))
Chain of human NL2(–A)_(ECTO) (Glu38-His612), immobilised for SPR (Q8NFZ4 other isoform, or with tags, fused parts or gaps with the stated changes): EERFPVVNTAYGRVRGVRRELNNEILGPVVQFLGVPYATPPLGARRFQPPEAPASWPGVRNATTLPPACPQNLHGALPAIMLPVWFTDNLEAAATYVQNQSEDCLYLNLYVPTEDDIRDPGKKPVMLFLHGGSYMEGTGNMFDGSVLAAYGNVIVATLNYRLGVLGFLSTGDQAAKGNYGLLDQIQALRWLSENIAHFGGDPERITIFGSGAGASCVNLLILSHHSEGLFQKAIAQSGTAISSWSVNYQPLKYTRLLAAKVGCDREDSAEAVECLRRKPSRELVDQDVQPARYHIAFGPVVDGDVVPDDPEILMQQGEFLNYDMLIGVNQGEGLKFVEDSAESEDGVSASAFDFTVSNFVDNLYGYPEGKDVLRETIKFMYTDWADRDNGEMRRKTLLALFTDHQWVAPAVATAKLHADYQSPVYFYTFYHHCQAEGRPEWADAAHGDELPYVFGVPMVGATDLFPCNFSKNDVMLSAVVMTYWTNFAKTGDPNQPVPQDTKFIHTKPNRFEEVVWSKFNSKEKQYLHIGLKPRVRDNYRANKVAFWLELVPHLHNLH

T1 sequence (Q9NZ94 other isoform, or with tags, fused parts or gaps –A: nothing between Asp152 and Asp193): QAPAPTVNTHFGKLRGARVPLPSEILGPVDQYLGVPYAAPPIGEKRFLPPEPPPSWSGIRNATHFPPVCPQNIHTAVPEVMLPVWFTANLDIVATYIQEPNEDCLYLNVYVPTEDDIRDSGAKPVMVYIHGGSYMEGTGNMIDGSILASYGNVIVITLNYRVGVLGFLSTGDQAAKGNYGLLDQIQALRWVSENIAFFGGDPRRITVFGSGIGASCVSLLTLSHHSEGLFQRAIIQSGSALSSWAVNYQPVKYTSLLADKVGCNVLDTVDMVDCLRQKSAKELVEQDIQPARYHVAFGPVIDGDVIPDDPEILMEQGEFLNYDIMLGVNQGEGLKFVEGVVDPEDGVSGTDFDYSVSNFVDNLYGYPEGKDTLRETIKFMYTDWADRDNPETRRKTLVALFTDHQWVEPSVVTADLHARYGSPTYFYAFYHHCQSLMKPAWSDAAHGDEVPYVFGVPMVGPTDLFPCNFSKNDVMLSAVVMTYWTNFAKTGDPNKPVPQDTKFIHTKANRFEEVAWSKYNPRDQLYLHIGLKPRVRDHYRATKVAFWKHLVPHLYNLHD

B1: human MDGA1 extracellular domain (MDGA1_(ECTO); Gln19-Lys925) (domain or fragment)
chain: QGVYAPAQAQIVHAGQACVVKEDNISERVYTIREGDTLMLQCLVTGHPRPQVRWTKTAGSASDKFQETSVFNETLRIERIARTQGGRYYCKAENGVGVPAIKSIRVDVQYLDEPMLTVHQTVSDVRGNFYQEKTVFLRCTVNSNPPARFIWKRGSDTLSHSQDNGVDIYEPLYTQGETKVLKLKNLRPQDYASYTCQVSVRNVCGIPDKAITFRLTNTTAPPALKLSVNETLVVNPGENVTVQCLLTGGDPLPQLQWSHGPGPLPLGALAQGGTLSIPSVQARDSGYYNCTATNNVGNPAKKTVNLLVRSMKNATFQITPDVIKESENIQLGQDLKLSCHVDAVPQEKVTYQWFKNGKPARMSKRLLVTRNDPELPAVTSSLELIDLHFSDYGTYLCMASFPGAPVPDLSVEVNISSETVPPTISVPKGRAVVTVREGSPAELQCEVRGKPRPPVLWSRVDKEAALLPSGLPLEETPDGKLRLERVSRDMSGTYRCQTARYNGFNVRPREAQVQLNVQFPPEVEPSSQDVRQALGRPVLLRCSLLRGSPQRIASAVWRFKGQLLPPPPVVPAAAEAPDHAELRLDAVTRDSSGSYECSVSNDVGSAACLFQVSAKAYSPEFYFDTPNPTRSHKLSKNYSYVLQWTQREPDAVDPVLNYRLSIRQLNQHNAVVKAIPVRRVEKGQLLEYILTDLRVPHSYEVRLTPYTTFGAGDMASRIIHYTEPINSPNLSDNTCHFEDEKICGYTQDLTDNFDWTRQNALTQNPKRSPNTGPPTDISGTPEGYYMFIETSRPRELGDRARLVSPLYNASAKFYCVSFFYHMYGKHIGSLNLLVRSRNKGALDTHAWSLSGNKGNVWQQAHVPISPSGPFQIIFEGVRGPGYLGDIAIDDVTLKKGECPRKQTDPNK
Binder B1 has a Kd [1] of 14.6 µM, a Kd [2] of 14.7 µM and a Kd [3] of 23.2 µM. It also gave a Kd [4] of 17.1 µM and a Kd [5] of 3.62 µM.

B2: human β-neurexin-1 LNS6 domain lacking SS4 (β-NRX1_(LNS6)(–4); His85-Val265) (domain or fragment)
chain: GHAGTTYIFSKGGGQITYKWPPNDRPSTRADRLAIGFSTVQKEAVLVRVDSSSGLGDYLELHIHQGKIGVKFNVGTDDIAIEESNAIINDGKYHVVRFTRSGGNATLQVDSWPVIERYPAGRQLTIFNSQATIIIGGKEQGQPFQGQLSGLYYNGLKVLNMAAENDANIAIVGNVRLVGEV
In the case of B2, the Kd [6] is reported as 0.699 µM, the Kd [2] is reported as 2.49 µM and the Kd [3] is reported as 3.16 µM. The Kd [4] was 9.48 µM and the Kd [5] was 0.64 µM.

B3: human β-neurexin-1 LNS6 domain with SS4 (β-NRX1_(LNS6)(+4)) (domain or fragment)
chain: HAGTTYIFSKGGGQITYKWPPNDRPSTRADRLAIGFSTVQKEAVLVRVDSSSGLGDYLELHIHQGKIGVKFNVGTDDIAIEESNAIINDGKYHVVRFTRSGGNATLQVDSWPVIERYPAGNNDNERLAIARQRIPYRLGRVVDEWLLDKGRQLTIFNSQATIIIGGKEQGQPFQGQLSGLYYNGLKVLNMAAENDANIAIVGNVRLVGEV
For B3, the Kd [1] was 22.1 µM, the Kd [6] was 4 µM and the Kd [2] was 9.66 µM. It also gave a Kd [3] of 14.2 µM, a Kd [4] of 36.8 µM and a Kd [5] of 2.63 µM.

B4: human MDGA2 extracellular domain (MDGA2_(ECTO); Gln21-Lys927) (domain or fragment)
chain: QGVYAPPTVRIVHSGLACNIEEERYSERVYTIREGETLELTCLVTGHPRPQIRWTKTAGSASDRFQDSSVFNETLRITNIQRHQGGRYYCKAENGLGSPAIKSIRVDVYYLDDPVVTVHQSIGEAKEQFYYERTVFLRCVANSNPPVRYSWRRGQEVLLQGSDKGVEIYEPFFTQGETKILKLKNLRPQDYANYSCIASVRNVCNIPDKMVSFRLSNKTASPSIKLLVDDPIVVNPGEAITLVCVTTGGEPAPSLTWVRSFGTLPEKTVLNGGTLTIPAITSDDAGTYSCIANNNVGNPAKKSTNIIVRALKKGRFWITPDPYHKDDNIQIGREVKISCQVEAVPSEELTFSWFKNGRPLRSSERMVITQTDPDVSPGTTNLDIIDLKFTDFGTYTCVASLKGGGISDISIDVNISSSTVPPNLTVPQEKSPLVTREGDTIELQCQVTGKPKPIILWSRADKEVAMPDGSMQMESYDGTLRIVNVSREMSGMYRCQTSQYNGFNVKPREALVQLIVQYPPAVEPAFLEIRQGQDRSVTMSCRVLRAYPIRVLTYEWRLGNKLLRTGQFDSQEYTEYAVKSLSNENYGVYNCSIINEAGAGRCSFLVTGKAYAPEFYYDTYNPVWQNRHRVYSYSLQWTQMNPDAVDRIVAYRLGIRQAGQQRWWEQEIKINGNIQKGELITYNLTELIKPEAYEVRLTPLTKFGEGDSTIRVIKYSAPVNPHLREFHCGFEDGNICLFTQDDTDNFDWTKQSTATRNTKYTPNTGPNADRSGSKEGFYMYIETSRPRLEGEKARLLSPVFSIAPKNPYGPTNTAYCFSFFYHMYGQHIGVLNVYLRLKGQTTIENPLWSSSGNKGQRWNEAHVNIYPITSFQLIFEGIRGPGIEGDIAIDDVSIAEGECAKQDLATK
In the case of B4, the Kd [1] is reported as 27.6 µM, the Kd [6] is reported as 0.768 µM and the Kd [2] is reported as 14.4 µM. The Kd [3] was 21.9 µM, the Kd [4] was 24.9 µM and the Kd [5] was 1.69 µM.
